{"source": "patent US20240252637A1", "biological_target": "CD19 on Namalwa cells (UniProt P15391)", "sequence (P15391 20-556 limits assumed)": "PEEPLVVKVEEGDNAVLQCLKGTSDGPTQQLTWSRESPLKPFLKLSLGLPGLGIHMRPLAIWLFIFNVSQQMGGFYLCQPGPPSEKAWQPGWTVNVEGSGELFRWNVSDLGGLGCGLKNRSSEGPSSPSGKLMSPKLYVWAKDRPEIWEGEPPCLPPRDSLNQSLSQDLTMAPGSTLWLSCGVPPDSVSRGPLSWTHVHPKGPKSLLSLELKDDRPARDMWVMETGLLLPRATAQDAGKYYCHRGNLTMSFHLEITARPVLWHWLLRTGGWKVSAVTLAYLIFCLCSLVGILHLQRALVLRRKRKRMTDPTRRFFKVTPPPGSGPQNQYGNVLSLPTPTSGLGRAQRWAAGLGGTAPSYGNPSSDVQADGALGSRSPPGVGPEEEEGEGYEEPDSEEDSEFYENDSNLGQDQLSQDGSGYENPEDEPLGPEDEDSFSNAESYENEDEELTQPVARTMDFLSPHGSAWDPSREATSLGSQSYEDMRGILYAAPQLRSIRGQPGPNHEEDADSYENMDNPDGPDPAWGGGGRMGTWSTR", "test": "cell-based or functional assay"}
{"substance": "CD19-CAR (third generation anti-CD19 chimeric antigen receptor, from the lenti-EF1-CD19-3rd-CAR-eGFt plasmid, Creative Biolabs) on the surface of exosomes from CAR-T cells", "values": [{"measurement": "Co-culture killing assay; decrease of CD19+ cells incubated with EXO-CD19-CAR", "value": 60, "unit": "%"}, {"measurement": "Cytotoxicity assay of EXO-CAR-T against tumor cells (Namalwa); CD19+ cells eliminated at 150 µg/mL EXO-CAR-T", "value": 70, "unit": "%"}]}
